Results reported in the supplement of paper PMC10724198.
± gives the standard deviation of the averaged measurements.

tested on: Saccharomyces cerevisiae; assay: protein stability index of tFT-peptide fusion (C-terminal peptide) (PSI (0-1 scale)); higher = more stable (slower turnover); conditions: genetic background: wild type; temperature: 30 C
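Further: PSI is a weighted mean of sequencing reads over stability bins, variants kept only with over 10 reads, mCherry proximal and sfGFP distal, peptide attached via GGGS linker.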

Sequence | protein stability index
PAPQAVRIFSLY | 0.428 ± 0.046
PASYPPFIYLSI | 0.434 ± 0.077
PCFACIAFVLFP | 0.4827 ± 0.004
PLFLRPLSVPVL | 0.425 ± 0.0092
PLLPCRPILFLL | 0.197 ± 0.043
PLLPLPRFPLFA | 0.41 ± 0.021
PLSDPLRVILIM | 0.443 ± 0.063
PPPPTPRPLLPP | 0.449 ± 0.029
PPPRLPLLSCSQ | 0.408 ± 0.013
PPPSRRLTLRLA | 0.292 ± 0.041
PPWRPVALLLLA | 0.156 ± 0.013
PRFCVYARFHNT | 0.387 ± 0.022
PRFWFYLSYSVH | 0.431 ± 0.032
PSPPPPLPPHPS | 0.721 ± 0.025
PSPPPPRPASPS | 0.439 ± 0.023
PSTLVITVVITK | 0.37 ± 0.038
PYHAPRPPFSLF | 0.149 ± 0.0084
QARQLEMYMVVF | 0.432 ± 0.0045
QCKHIVRKIKLH | 0.186 ± 0.025
QDFFYCLLVATS | 0.317 ± 0.029
QGILVGCCYVLC | 0.386 ± 0.022
QLGGKVGNCHVV | 0.75 ± 0.021
QVGRPRVGFSRR | 0.764 ± 0.014
RAFFLLYCTLWA | 0.206 ± 0.04
RALYLLALVGVS | 0.362 ± 0.11
RARFMLGVLLST | 0.451 ± 0.021

Sequence | protein stability index
RARLRFASLRAF | 0.176 ± 0.01
RDRHFKIQTCIM | 0.388 ± 0.0046
RFCLLFVVAGGV | 0.457 ± 0.017
RFFFFFPCLLAP | 0.457 ± 0.048
RFYLFLFFVRST | 0.175 ± 0.0048
RGGVCFVVWCGG | 0.429
RGRLKSSYFILF | 0.497 ± 0.074
RGWNGFWVVVVW | 0.307 ± 0.0078
RIKVTRRIIIYA | 0.299 ± 0.011
RILSLQFILCKR | 0.463 ± 0.0058
RLARRGGGWGPG | 0.5 ± 0.1
RLELTRIMIVAI | 0.207 ± 0.035
RLGIRCLYLRFI | 0.306 ± 0.011
RLLCLARMRGLH | 0.396 ± 0.2
RLMVHQHTIPVR | 0.4449 ± 0.0039
RLVIFITRYLIS | 0.2581 ± 0.00054
RLVYSQKRWSLF | 0.24 ± 0.006
RPGRWFCFLYCV | 0.185 ± 0.005
RPIFAYRPLRFL | 0.342 ± 0.053
RPNTFRTRAKAL | 0.274 ± 0.081
RRFKKTEIIKNN | 0.247 ± 0.004
RRVPVHIHFSLF | 0.291 ± 0.03
RSKKIFLTKKYS | 0.281 ± 0.075
RSPIRYPPVVLS | 0.518 ± 0.07
RSPVVVFAVLLF | 0.423 ± 0.018
RSRCVRAAVKVG | 0.324 ± 0.0059

Sequence | protein stability index
RSRRNRYSRKIA | 0.184 ± 0.013
RSWLCFIVFGLF | 0.313 ± 0.011
RTSRPVRLFRIH | 0.402 ± 0.06
RVCWLRAFGFLV | 0.305 ± 0.028
RVGALLAVTCPA | 0.446 ± 0.0093
RVLILCLFFRWS | 0.347 ± 0.18
RVVILFVFLVYV | 0.3235 ± 0.0031
RWCLWGTRVWVS | 0.147 ± 0.028
RWELASKCRLCV | 0.296 ± 0.04
RWRDGVAWVVVC | 0.143 ± 0.025
SAWGQAFWCQMG | 0.4071 ± 0.00098
SCCGCGFGLLFC | 0.73 ± 0.018
SCCIYVALCRWL | 0.382 ± 0.016
SCGVYVVFVLVE | 0.286 ± 0.16
SCIVRTLVPCPS | 0.373 ± 0.022
SFCVLLQFCVLV | 0.0186 ± 0.026
SFFCTRVLWVFQ | 0.157 ± 0.023
SFHTFFCPFFIL | 0.205 ± 0.024
SGPNASRFYAPI | 0.696 ± 0.041
SHPFIRSLVFLA | 0.103 ± 0.037
SHWSMQATLQLV | 0.469 ± 0.016
SIFFLVPLVFLS | 0.214 ± 0.043
SIPVWTIELFAT | 0.469 ± 0.037
SLEACYCFVVLV | 0.2744 ± 0.00036
SLFDQDCGGTVW | 0.764 ± 0.027
SLIFRVGKFKSL | 0.137 ± 0.021

tested on: Saccharomyces cerevisiae; assay: as above; conditions: genetic background: cdc34-1; temperature: 37 C
Protocol: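 MPS profiling in S. cerevisiae of the tFT-X12 degron library: putative degron peptides plus stable controls, 12 aa, fused to the C-terminus of a sfGFP-mCherry timer. Cells are FACS-sorted into 8 mCherry/sfGFP bins and deep-sequenced. PSI runs from 0 (unstable) to 1 (stable). Backgrounds are wild type, das1Δ and doa10Δ at 30 °C, and wild type, das1Δ, cdc34-1 and cdc53-1 at 37 °C; 2-3 technical replicates each.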

Sequence | protein stability index
PAPQAVRIFSLY | 0.62 ± 0.089
PASYPPFIYLSI | 0.306 ± 0.012
PCFACIAFVLFP | 0.451 ± 0.013
PLFLRPLSVPVL | 0.421 ± 0.0067
PLLPCRPILFLL | 0.559 ± 0.072
PLLPLPRFPLFA | 0.547 ± 0.018
PLSDPLRVILIM | 0.55 ± 0.016
PPPPTPRPLLPP | 0.662 ± 0.011
PPPRLPLLSCSQ | 0.661 ± 0.025
PPPSRRLTLRLA | 0.612 ± 0.035
PPWRPVALLLLA | 0.206 ± 0.029
PRFCVYARFHNT | 0.713 ± 0.016
PRFWFYLSYSVH | 0.429 ± 0.044
PSPPPPLPPHPS | 0.688 ± 0.039
PSPPPPRPASPS | 0.7 ± 0.052
PSTLVITVVITK | 0.247 ± 0.019
PYHAPRPPFSLF | 0.511 ± 0.05
QARQLEMYMVVF | 0.638 ± 0.066
QCKHIVRKIKLH | 0.426 ± 0.089
QDFFYCLLVATS | 0.155 ± 0.0058
QGILVGCCYVLC | 0.426 ± 0.024
QLGGKVGNCHVV | 0.683 ± 0.046
QVGRPRVGFSRR | 0.704 ± 0.035
RAFFLLYCTLWA | 0.0997 ± 0.0085
RALYLLALVGVS | 0.234 ± 0.0075
RARFMLGVLLST | 0.5525 ± 0.0044

Sequence | protein stability index
RARLRFASLRAF | 0.546 ± 0.015
RDRHFKIQTCIM | 0.662 ± 0.016
RFCLLFVVAGGV | 0.516 ± 0.0057
RFFFFFPCLLAP | 0.349 ± 0.011
RFYLFLFFVRST | 0.302 ± 0.055
RGGVCFVVWCGG | 0.46 ± 0.03
RGRLKSSYFILF | 0.7 ± 0.032
RGWNGFWVVVVW | 0.216 ± 0.015
RIKVTRRIIIYA | 0.335 ± 0.036
RILSLQFILCKR | 0.607 ± 0.025
RLARRGGGWGPG | 0.681 ± 0.012
RLELTRIMIVAI | 0.06 ± 0.0059
RLGIRCLYLRFI | 0.406 ± 0.1
RLLCLARMRGLH | 0.6854 ± 0.0031
RLMVHQHTIPVR | 0.463 ± 0.072
RLVIFITRYLIS | 0.337 ± 0.043
RLVYSQKRWSLF | 0.673 ± 0.07
RPGRWFCFLYCV | 0.382 ± 0.063
RPIFAYRPLRFL | 0.656 ± 0.047
RPNTFRTRAKAL | 0.636 ± 0.013
RRFKKTEIIKNN | 0.625 ± 0.024
RRVPVHIHFSLF | 0.627 ± 0.0066
RSKKIFLTKKYS | 0.608 ± 0.053
RSPIRYPPVVLS | 0.698 ± 0.038
RSPVVVFAVLLF | 0.438 ± 0.072
RSRCVRAAVKVG | 0.612 ± 0.036

Sequence | protein stability index
RSRRNRYSRKIA | 0.506 ± 0.024
RSWLCFIVFGLF | 0.368 ± 0.027
RTSRPVRLFRIH | 0.753 ± 0.031
RVCWLRAFGFLV | 0.666 ± 0.033
RVGALLAVTCPA | 0.435 ± 0.035
RVLILCLFFRWS | 0.2532 ± 0.00072
RVVILFVFLVYV | 0.269 ± 0.013
RWCLWGTRVWVS | 0.439 ± 0.04
RWELASKCRLCV | 0.563 ± 0.0077
RWRDGVAWVVVC | 0.254 ± 0.011
SAWGQAFWCQMG | 0.712 ± 0.027
SCCGCGFGLLFC | 0.731 ± 0.011
SCCIYVALCRWL | 0.473 ± 0.024
SCGVYVVFVLVE | 0.0658 ± 0.027
SCIVRTLVPCPS | 0.377 ± 0.0049
SFCVLLQFCVLV | 0.412 ± 0.0095
SFFCTRVLWVFQ | 0.534 ± 0.017
SFHTFFCPFFIL | 0.53 ± 0.051
SGPNASRFYAPI | 0.672 ± 0.04
SHPFIRSLVFLA | 0.43 ± 0.015
SHWSMQATLQLV | 0.617 ± 0.046
SIFFLVPLVFLS | 0.4422 ± 0.0014
SIPVWTIELFAT | 0.555 ± 0.022
SLEACYCFVVLV | 0.187 ± 0.0034
SLFDQDCGGTVW | 0.756 ± 0.034
SLIFRVGKFKSL | 0.5892 ± 0.0014
